Assay results: patent US20090158455A1, “COMPOSITIONS AND METHODS FOR MODULATING LYSINE PRODUCTION” (priority 2005, published 2009)
Several values for one entry are separate records, joined by “and”; a condition that tells them apart may be missing. Equal entries are not always repeated.

Assays:
[1] = substrate: N[C@@H](CCC(=O)O)C(=O)O; assay: purified protein, by the assay type; conditions: other: forward assay
[2] = substrate: O=C(O)C1=N[C@H](C(=O)O)CCC1; assay: purified protein, by the assay type; conditions: other: forward assay
[3] = substrate: N[C@@H](CCC[C@H](N)C(=O)O)C(=O)O; assay: purified protein, by the assay type; conditions: other: reverse assay
[4] = substrate: O=C(O)CCC(=O)C(=O)O; assay: purified protein, by the assay type; conditions: other: reverse assay
[5] = substrate: N[C@@H](CCC(=O)O)C(=O)O; assay: Quantitative forward and reverse assays of purified LL-DAP transaminases (Example III); assay type: biochemical, Bacteroides fragilis NCTC9343; conditions: other: forward assay
From the text: (§1) All orfs were processed identically for expression in E. coli. The orfs were amplified by PCR using the indicated primers. The resulting DNA fragment was digested with BamHI and SalI and cloned into pET30b. The pET30b clone was sequenced. This plasmid was transformed into E. coli BL21-CodonPlus®-RIPL for expression and purification of the recombinant protein. For functional complementation experiments, the expression cassette was subcloned from pET30b into pBAD33 (Guzman et al., 1995) using XbaI and SalI. Using these enzymes the expression cassette included the entire orf, the His-Tag coding sequence and the ribosome binding site from pET30b. pBAD33 provided an arabinose-regulated promoter.
(§2) For protein expression the E. coli strains were grown on LB at 37° C. to an OD600 nm of 0.5 and protein expression was then induced with 1 mM IPTG for 4 hr at 25° C. Cells were lysed by sonication in a solution of 50 mM sodium phosphate and 300 mM NaCl (pH 8.0). Metabolites in the extract were removed by buffer exchange using an Amicon Ultra 30,000 MWCO ultrafilter and sodium phosphate/NaCl buffer, and the concentrated soluble protein sample was used for measurement of enzyme activity as an initial assessment of enzyme function. When the recombinant protein was to be purified a larger cell culture was grown and lysed as described above, but the buffer exchange step was not carried out. […] The pure protein was then concentrated in an Amicon Ultra 30,000 MWCO ultrafilter, replacing the elution buffer with 100 mM HepesKOH, pH 7.6.
(§3) Enzyme assays were performed as described above in Examples I and II.
(§4) The catalytic properties of sll0480, BF2643, Dhaf—3980, MTH52, and SfumDRAFT0821 were studied in greater detail using purified enzymes to determine their kinetic constants using quantitative forward and reverse assays.

[6] = substrate: O=C(O)C1=N[C@H](C(=O)O)CCC1; assay: as above; assay type: biochemical, Bacteroides fragilis NCTC9343; conditions: other: forward assay
From the text: as §1, §2, §3, §4

[7] = substrate: N[C@@H](CCC[C@H](N)C(=O)O)C(=O)O; assay: as above; assay type: biochemical, Bacteroides fragilis NCTC9343; conditions: other: reverse assay
From the text: as §1, §2, §3, §4

[8] = substrate: N[C@@H](CCC(=O)O)C(=O)O; assay: as above; assay type: biochemical, Syntrophobacter fumaroxidans MPOB; conditions: other: forward assay
[9] = substrate: O=C(O)C1=N[C@H](C(=O)O)CCC1; assay: as above; assay type: biochemical, Syntrophobacter fumaroxidans MPOB; conditions: other: forward assay
[10] = coupled with 2-OG dehydrogenase, pH 7.5, apparent Km, pH 7.5, 30.0 °C
[11] = Ddh-coupled, pH 7.5, 30° C., apparent Km, pH 7.5, 30.0 °C

B1: Arabidopsis thaliana LL-DAP-AT (At4g33680), wild type, recombinant (lacks first 39 amino acids, hexa-His and S-TAG), SEQ ID NO: 7 (Arabidopsis thaliana) (protein)
chain: VNTCKCVATPQEKIEYKTKVSRNSNMSKLQAGYLFPEIARRRSAHLLKYPDAQVISLGIGDTTEPIPEVITSAMAKKAHELSTIEGYSGYGAEQGAKPLRAAIAKTFYGGLGIGDDDVFVSDGAKCDISRLQVMFGSNVTIAVQDPSYPAYVDSSVIMGQTGQFNTDVQKYGNIEYMRCTPENGFFPDLSTVGRTDIIFFCSPNNPTGAAATREQLTQLVEFAKKNGSIIVYDSAYAMYMSDDNPRSIFEIPGAEEVAMETASFSKYAGFTGVRLGWTVIPKKLLYSDGFPVAKDFNRIICTCFNGASNISQAGALACLTPEGLEAMHKVIGFYKENTNIIIDTFTSLGYDVYGGKNAPYVWVHFPNQSSWDVFAEILEKTHVVTTPGSGFGPGGEGFVRVSAFGHRENILEACRRFKQLYK
- Km ([1]; coupled with 2-OG dehydrogenase, pH 7.5, apparent Km, pH 7.5): 2000 µM
- Km [1, 10]: 1900 ± 100 µM
- Km [2, 10]: 38 ± 4 µM
- Km [3, 11]: 67 ± 2 µM
- Km [4, 11]: 8300 µM and 8700 ± 300 µM

B2: Arabidopsis thaliana LL-DAP transaminase At4g33680, SEQ ID NO: 7 (Arabidopsis thaliana) (protein)
chain: VNTCKCVATPQEKIEYKTKVSRNSNMSKLQAGYLFPEIARRRSAHLLKYPDAQVISLGIGDTTEPIPEVITSAMAKKAHELSTIEGYSGYGAEQGAKPLRAAIAKTFYGGLGIGDDDVFVSDGAKCDISRLQVMFGSNVTIAVQDPSYPAYVDSSVIMGQTGQFNTDVQKYGNIEYMRCTPENGFFPDLSTVGRTDIIFFCSPNNPTGAAATREQLTQLVEFAKKNGSIIVYDSAYAMYMSDDNPRSIFEIPGAEEVAMETASFSKYAGFTGVRLGWTVIPKKLLYSDGFPVAKDFNRIICTCFNGASNISQAGALACLTPEGLEAMHKVIGFYKENTNIIIDTFTSLGYDVYGGKNAPYVWVHFPNQSSWDVFAEILEKTHVVTTPGSGFGPGGEGFVRVSAFGHRENILEACRRFKQLYK
- Km [1]: 1400 µM
- Km [2]: 25 µM
- Km [3]: 62 µM
- Km [4]: 1400 µM

B3: Bacteroides fragilis LL-DAP transaminase Bf2643 (Bacteroides fragilis YCH46) (protein)
chain: MALVNEHFLKLPGSYLFSDIAKKVNTFKITHPKRDIIRLGIGDVTRPLPKACIEAMHKAVEEMTSAETFRGYGPEQGYDFLIEAIIKNDYAPRGIHLSPTEVFVNDGAKSDTGNIGDILRHDNSVGVTDPIYPVYIDSNVMCGRAGVLDTESGKWSNVTYMPCTAENHFIPAIPEKRIDIVYLCYPNNPTGTTLTKAELKKWVDYALANDTLILFDAAYEAYIREPDIPHSIYEIKGAKKCAIEFRSFSKTAGFTGVRCGYTVVPKELTAATLEGERIPLNRLWNRRQCTKFNGTSYITQRAAEAIYTPEGKEQIQETINYYMTNARIMKEGLESTGLKVYGGVNAPYLWVKTPNGTSSWRFFDQMLYEANVVGTPGVGFGPSGEGYIRLTAFGERDDCIEAMRRIKNRL
- Km [5]: 1300 µM
- Km [6]: 96 µM
- Km [7]: 10 µM
- Km [4]: 1200 µM

B4: Syntrophobacter fumaroxidans LL-DAP transaminase SfumDRAFT_0821 (Syntrophobacter fumaroxidans MPOB) (protein)
chain: MAFVKAERLKLLPPYLFQEIDRLKAELTAKGVDVINLGVGDPDLPTPDHIIARLKTAAEDPSTHQYPSYSGMNDFKVSVAGWYKRRFGVELDPLSEVLTLIGSKEGLAHFPLAVINPGDLALVPTPAYPVYHVATMFAGGESYFMPLVRENGFLPDLDSIPADVARRAKVMFINYPNNPTGATAERDFFEKVIAFAREYDVIVCHDAAYTEMAFGGYRPLSFLELPGAGEVGVEFHSLSKTYNMTGWRLGFAVGNADILAGLGQVKSNIDSGAFNAVQWAGITALEGDQGCVVEMQRIYKERLDILIEGLKRIGLHPEVPRATFYVWCPTPPGYSSKDFSSLLLREAGIVATPGSGFGAPGEGYIRMALTVDKERVREAVERMRKLSF
- Km [3]: 29 µM
- Km [4]: 700 µM
- Km [8]: 700 µM
- Km [9]: 12 µM
